In publication PMC7900914:

Molecular target: HLA-B*57:01–T3N (human | not stated | HIV-1)
Test: SPR

Substance: KIR3DL1*001 (similar construct, from insect cells) (from UniProt P43629 22-444) (receptor)
- Kd: 100 µM
